Assay results from the supplement of paper PMC7877785.
± gives the uncertainty stated by the source.

Assay: self-splicing fitness, log relative to wild type (ln ratio); higher = more splicing; Tetrahymena group I intron in knt gene, E. coli kanamycin selection, DiMSum; sequences stand for … in CUCUCU…GGAGGGAAAAGUUAUCAGGCAUGCACCUGGUAGCUAGUCUUUAAACCAAUAGAUUGCAUCGGUUUAAAAGGCAAGACCGUCAAAUUGCGGGAAAGGGGUCAACAGCCGUUCAGUACCAAGUCUCAGGGGAAACUUUGAGAUGGCCUUGCAAAGGGUAUGGUAAUAAGCUGACGGACAUGGUCCUAACCACGCAGCCAAGUCCUAAGUCAACAGAUCUUCUGUUGAUAUGGAUGCAGUUCACAGACUAAAUGUCGGUCGGGGAAGAUGUAUUCUUCUCAUAAGAUAUAGUCGGACCUCUCCUUAAUGGGAGCUAGCGGAUGAAGUGAUGCAACACUGGAGCCGCUGGGAACUAAUUUGUAUGCGAAAGUAUAUUGAUUAGUUUUGGAGUACUCGUGGUCG
How it was run: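 Pooled colonies went to amplicon sequencing on an Illumina HiSeq 2500 after six replicate transformations. The plates were LB agar with 100 μg/mL carbenicillin, 50 μM IPTG and 0.2% rhamnose, with or without 25 μg/mL kanamycin, incubated overnight at 37°C or 30°C. The E. coli BL21(DE3) library had all eight P1ex-region intron nucleotides randomised, the intron placed in the knt kanamycin-resistance gene on pET-22b(+). DiMSum fitness is the error-weighted combination of replicate fold changes, kanamycin against none, normalised to wild type.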

Row | Sequence | self-splicing fitness (ln) (30 °C) | self-splicing fitness (ln) (37 °C)
1 | CGUGAGCAAUAUUACGGAUC | -4.24 ± 0.33 | -1.88 ± 0.25
2 | UCCCAGCAAUAUUACGGCCU | -2.43 ± 0.16 | -0.901 ± 0.17
3 | AUCCAGCAAUAUUACGCGCC | -0.363 ± 0.14 | 0.126 ± 0.17
4 | AAGUAGCAAUAUUACGGUAU | -2.25 ± 0.097 | -1.88 ± 0.092
5 | CGGGAGCAAUAUUACGUGAU | – | -0.773 ± 0.19
6 | UCGUAGCAAUAUUACGUCAU | -3.23 ± 0.35 | -2.17 ± 0.33
7 | GUGUAGCAAUAUUACGCGAG | -3.67 ± 0.32 | -0.997 ± 0.17
8 | GCGUAGCAAUAUUACGUCAU | -3.22 ± 0.26 | -2.25 ± 0.3
9 | GGGGAGCAAUAUUACGACGA | -2.56 ± 0.4 | -1.34 ± 0.28
10 | CCCUAGCAAUAUUACGGUAG | -3.6 ± 0.16 | -3.5 ± 0.21
11 | AAUAAGCAAUAUUACGAGGA | -3.05 ± 0.43 | -1.94 ± 0.33
12 | AACUAGCAAUAUUACGGCUU | 0.0162 ± 0.065 | -0.0298 ± 0.091
13 | UUCAAGCAAUAUUACGGGUC | -4.54 ± 0.32 | -1.53 ± 0.14
14 | UGUUAGCAAUAUUACGUGUG | -0.767 ± 0.12 | -0.724 ± 0.13
15 | UGCAAGCAAUAUUACGCGGU | -3.01 ± 0.23 | -2.25 ± 0.21
16 | CGCCAGCAAUAUUACGGGUA | -0.998 ± 0.064 | -0.377 ± 0.069
17 | UCAUAGCAAUAUUACGUCCU | -3.7 ± 0.25 | -1.18 ± 0.14
18 | CAGGAGCAAUAUUACGUAGU | -3.42 ± 0.17 | -1.55 ± 0.13
19 | CGAUAGCAAUAUUACGACAC | -3.23 ± 0.49 | –
20 | CGCAAGCAAUAUUACGCCGU | -2.67 ± 0.25 | -0.883 ± 0.14
21 | GGUCAGCAAUAUUACGCUUA | 0.0476 ± 0.059 | 0.296 ± 0.078
22 | UAAGAGCAAUAUUACGCCAU | -2.59 ± 0.46 | -1.46 ± 0.38
23 | GUAUAGCAAUAUUACGACUG | -2.88 ± 0.33 | -2.23 ± 0.33
24 | CUGAAGCAAUAUUACGCAAA | -4.27 ± 0.42 | –
25 | CCCAAGCAAUAUUACGCUAA | -3.05 ± 0.29 | -1.23 ± 0.21

Row | Sequence | self-splicing fitness (ln) (30 °C) | self-splicing fitness (ln) (37 °C)
26 | GUUUAGCAAUAUUACGAGUG | -3.74 ± 0.17 | -0.634 ± 0.11
27 | GUCUAGCAAUAUUACGGUAG | – | -1.54 ± 0.26
28 | GUGAAGCAAUAUUACGAAUU | -0.957 ± 0.18 | -0.439 ± 0.21
29 | UUGGAGCAAUAUUACGGACA | -2.52 ± 0.49 | -1.91 ± 0.18
30 | ACCGAGCAAUAUUACGGCAU | -1.09 ± 0.09 | -0.529 ± 0.11
31 | GAGGAGCAAUAUUACGUGAC | -1.97 ± 0.3 | -0.137 ± 0.26
32 | GCUAAGCAAUAUUACGCGCU | -2.47 ± 0.16 | -1.57 ± 0.23
33 | UUACAGCAAUAUUACGCACU | -0.534 ± 0.12 | -0.572 ± 0.14
34 | GUCUAGCAAUAUUACGUAUA | -1.41 ± 0.13 | -0.887 ± 0.12
35 | CAGAAGCAAUAUUACGAGAC | -1.15 ± 0.3 | -1.38 ± 0.28
36 | CAGGAGCAAUAUUACGGGCG | -0.762 ± 0.099 | 0.0758 ± 0.14
37 | UAAAAGCAAUAUUACGUGGC | -3.46 ± 0.2 | -2.74 ± 0.2
38 | AUACAGCAAUAUUACGUUAA | -3.26 ± 0.18 | -1.41 ± 0.11
39 | GGUUAGCAAUAUUACGCGGU | -2.85 ± 0.49 | -2.36 ± 0.35
40 | GGACAGCAAUAUUACGAUAA | -1.81 ± 0.073 | -0.876 ± 0.08
41 | AAUUAGCAAUAUUACGAGUU | -1.48 ± 0.12 | -1.28 ± 0.15
42 | CGCCAGCAAUAUUACGCUGA | -3.51 ± 0.24 | -2.24 ± 0.28
43 | CUUAAGCAAUAUUACGCUAG | -3.35 ± 0.25 | -0.439 ± 0.19
44 | GUCCAGCAAUAUUACGUAGU | -0.119 ± 0.062 | 0.398 ± 0.08
45 | ACACAGCAAUAUUACGCCUG | -0.898 ± 0.07 | -0.245 ± 0.076
46 | CGUCAGCAAUAUUACGACGA | -1.34 ± 0.2 | -1.2 ± 0.21
47 | UUCCAGCAAUAUUACGCGAA | -1.64 ± 0.079 | -0.865 ± 0.089
48 | GAUCAGCAAUAUUACGAAAG | -0.98 ± 0.14 | -1.2 ± 0.24
49 | AUGCAGCAAUAUUACGUGGC | -4.09 ± 0.28 | -2.53 ± 0.19
50 | AAUGAGCAAUAUUACGAGUA | -3.91 ± 0.25 | -2.54 ± 0.27

Row | Sequence | self-splicing fitness (ln) (30 °C) | self-splicing fitness (ln) (37 °C)
51 | CAGGAGCAAUAUUACGGAUC | -4.29 ± 0.23 | -3.84 ± 0.34
52 | AGCGAGCAAUAUUACGGAGC | – | -2.92 ± 0.4
53 | ACCAAGCAAUAUUACGGCUG | -1.55 ± 0.068 | -0.288 ± 0.081
54 | UGGCAGCAAUAUUACGGGCU | -3.06 ± 0.16 | -2.02 ± 0.15
55 | UUACAGCAAUAUUACGUUUA | -1.3 ± 0.11 | -0.512 ± 0.12
56 | CCCCAGCAAUAUUACGAAUU | -3.01 ± 0.23 | -1.59 ± 0.36
57 | AGGUAGCAAUAUUACGAUUU | 0.169 ± 0.014 | 0.0198 ± 0.033
58 | ACUCAGCAAUAUUACGAUAG | -4.03 ± 0.24 | -2.21 ± 0.17
59 | UUUUAGCAAUAUUACGGAGG | -2.86 ± 0.27 | -1.48 ± 0.22
60 | GCUUAGCAAUAUUACGUCAA | -2.67 ± 0.26 | -1.66 ± 0.2
61 | UGUCAGCAAUAUUACGGGUU | -2.31 ± 0.1 | -1.07 ± 0.11
62 | CGUGAGCAAUAUUACGCUAC | – | -0.816 ± 0.38
63 | AUUUAGCAAUAUUACGCCAG | -2.27 ± 0.27 | –
64 | AGGGAGCAAUAUUACGUAUA | -3.19 ± 0.42 | –
65 | CUCUAGCAAUAUUACGUUAG | -3.81 ± 0.24 | -2.13 ± 0.22
66 | UGCUAGCAAUAUUACGUACA | 0.0476 ± 0.1 | 0.533 ± 0.17
67 | AAGAAGCAAUAUUACGCCUC | -1.82 ± 0.26 | -1.85 ± 0.27
68 | CGAGAGCAAUAUUACGCACC | -1.83 ± 0.28 | -2 ± 0.34
69 | UGAAAGCAAUAUUACGGUAU | -2.53 ± 0.21 | -0.827 ± 0.16
70 | AGGCAGCAAUAUUACGGCGA | -0.378 ± 0.075 | -0.154 ± 0.091
71 | GGGAAGCAAUAUUACGGUUU | -1.89 ± 0.099 | -1.07 ± 0.1
72 | CAGCAGCAAUAUUACGUCUU | -0.473 ± 0.053 | 0.3 ± 0.07
73 | AGCCAGCAAUAUUACGUCCA | -2.69 ± 0.18 | -1.99 ± 0.2
74 | GCCAAGCAAUAUUACGAAGU | -1.12 ± 0.049 | -0.235 ± 0.064
75 | AAACAGCAAUAUUACGCUUA | -1.92 ± 0.087 | -0.649 ± 0.094

Row | Sequence | self-splicing fitness (ln) (30 °C) | self-splicing fitness (ln) (37 °C)
76 | GGUGAGCAAUAUUACGCCUG | – | -1.47 ± 0.28
77 | AACUAGCAAUAUUACGAUUC | -1.81 ± 0.094 | -0.882 ± 0.11
78 | GUAAAGCAAUAUUACGAUCG | -0.724 ± 0.075 | 0.373 ± 0.11
79 | GCGAAGCAAUAUUACGGAGC | -2.69 ± 0.16 | -2.52 ± 0.21
80 | AAUCAGCAAUAUUACGAAUA | 0.443 ± 0.16 | -0.266 ± 0.12
81 | AUUUAGCAAUAUUACGCGCU | -0.923 ± 0.18 | -0.889 ± 0.15
82 | AGCCAGCAAUAUUACGUAUA | -3.4 ± 0.14 | -2.69 ± 0.17
83 | GAGCAGCAAUAUUACGUCCA | -1.3 ± 0.3 | -0.418 ± 0.2
84 | UGGAAGCAAUAUUACGGGAU | -1.89 ± 0.17 | -2.46 ± 0.28
85 | UAGUAGCAAUAUUACGUCAA | -2.07 ± 0.23 | -2.44 ± 0.18
86 | AUUCAGCAAUAUUACGCGUU | -0.912 ± 0.07 | -0.348 ± 0.081
87 | GAAGAGCAAUAUUACGCCCU | -2.24 ± 0.22 | -1.38 ± 0.31
88 | AUGAAGCAAUAUUACGUGGA | -2.73 ± 0.096 | -1.45 ± 0.11
89 | CAGUAGCAAUAUUACGAUAU | -2.7 ± 0.2 | -1.88 ± 0.21
90 | GGACAGCAAUAUUACGGUUU | -2.12 ± 0.072 | -0.504 ± 0.073
91 | CACCAGCAAUAUUACGGGGA | -1.7 ± 0.062 | -0.764 ± 0.067
92 | UUUAAGCAAUAUUACGGCGU | -1.29 ± 0.27 | -0.169 ± 0.34
93 | GCCUAGCAAUAUUACGGACA | -1.03 ± 0.097 | -0.277 ± 0.11
94 | CACAAGCAAUAUUACGGUCC | -2.99 ± 0.32 | -1.99 ± 0.27
95 | UCAGAGCAAUAUUACGGUCA | -1.72 ± 0.18 | -2.42 ± 0.32
96 | UGCCAGCAAUAUUACGACAU | -3.366 ± 0.021 | -1.9 ± 0.035
97 | UAAGAGCAAUAUUACGGACG | -1.89 ± 0.2 | -1.67 ± 0.26
98 | CUUUAGCAAUAUUACGACAC | -3.75 ± 0.3 | -2.54 ± 0.27
